Reference: patent US20050038229A1 (published 2005)

B1: T14.21 (designed binder)
chain: VSDVPRDLEVVAATPTSRLISWRPGRTYSRYYRITYGETGGNSPVQEFTVPPWANTATISGLKPGVDYTITAYAVTYTHSTPMQDEPISINYRT
B2: M12.24 (designed binder)
chain: VSDVPRDLEVVAATPTSRLISWNRSGLQSGYYRITYGETGGNSPVQEFTVPPWASIATISGLKPGVDYTITVYAVTPNVGRLDTRYPISIDCRT
B3: T10.15 (designed binder)
chain: VSDVPRDLEVVAATPTSLLISWHTERSFPRYYRITYGETGGNSPVQEFTVPPWGSIATISGLKPGVDYTITVYAVTEHYRDTGTGHPIPINYRT
B4: M12.19 (designed binder)
chain: VSDVPRDLEVVAATPTGLLISWRNNQYTPRHYGITYGETGGKSPVQEFTVPELNPTATISRLKPGVDYTITVYAVTQNGTPRVIYGPISINYRT
B5: M12.04 (designed binder)
chain: VSDVPGDLEVVAATPTSLLIGWSMTPNWPRYYRIAYGETGGDSPVQEFTVPPWASIAIIGGLKPGVDYTITVYAVTHRDTPISINYRT
notes: FG loop cell holds only HRDT
B6: M12.12 (designed binder)
chain: VSDVPSDLEVVAATPTSLLISWEQSPTYGRYYRITYGETGGNSPVQEFTVPGSKSTATISGRKPGADYTITVYAVTIEKDRIPLFGPISISYRT
B7: T14.22 (designed binder)
chain: VSDVPRDLEVVAATPSSRLISWRPGRTYSRYYRITYGETGGNSPVQEFTVPPWANTATISGLKPGVDYTIAVYAVTFPTGYPLTEMPISINYRT
B8: M12.09 (designed binder)
chain: VSDVPRDLEVVAATPTSRLISWRPGRAYSRYFRITYGETGGNSPVQEFTVPPWANTATISGLKPGVDYTIAVYAVTFPPRYPLTEMPISINYRA
B9: M12.14 (designed binder)
chain: VSDVPRDLKVVAATPTSRLISWTHDNVPARYYRITYGETGGNSPVQELTVPPWASIATISGLKPGVDYTITVYAVTLYTGNHRPEHPISINYRT
B10: T14.02 (designed binder)
chain: VSDVPRDLEVVVATPTSQLISWMTPHNHVRYYGITYGETGGNSPVQESTVPTGNATATISGLKPGVDYTITVYAVTPHHGHFDLEPPISINYRT
B11: M12.22 (designed binder)
chain: VSDVPRDLRVVAATPTSRLISWRPASNPARYYRITYGETGGNSPVQEFTVPPWASVATIGGLKPGVDYTVTVYAVTAQTGHRLHDKPISINYRT
B12: T14.20 (designed binder)
chain: VSDVPRDLEVVAATPTSRLISWRNIYPIARYYRITYGETGGNSPVQEFTVPPWASIATISGLKPGADYTITVYAVTDKSDTYKYDDPISINYRT
B13: M12.16 (designed binder)
chain: VSDVPRDLEVVAATPTSRLISWRPGRTYSRYYRITYGEAGGNSPVQEFTVPPWASIATISGLKPGVDYTITVYAVTDKSGTYRYDDPISINYRT
B14: M12.08 (designed binder)
chain: VSDVPRDLEVVAATPTSLLNVPIIRYYRITYGETGGNSPVQEFTVPAPKAIATTSGLKPGVDYTITVYGVTSHRNHFHVETPISINYQA
notes: BC loop cell holds only II

What follows are binders tested against T1, tumor necrosis factor-α (TNF-α) (human, UniProt P01375 77-233, biotinylated with NHS-LC-LC-Biotin in the Kd and fluorescence assays; coupled to Epoxy-Activated Sepharose 6B in the column assays) (assay: 35S free protein + biotin-TNF-α, capture membrane, equilibrium fit).
T1 construct: Bought from Pepro Tech; also called biotin-TNF-α; biotinylated TNF-α
T1 sequence (P01375 77-233 limits assumed): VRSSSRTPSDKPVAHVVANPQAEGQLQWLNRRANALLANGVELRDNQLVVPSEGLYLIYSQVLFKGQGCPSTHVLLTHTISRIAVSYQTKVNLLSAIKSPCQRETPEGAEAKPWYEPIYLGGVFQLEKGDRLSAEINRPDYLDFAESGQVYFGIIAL
Experimental: Subsequently, each sample was loaded on a pre-soaked, SAM2R Biotin Capture Membrane (Promega, Madison, Wis.) using a 96 well, Easy-Titer™ ELIFA system (Pierce). Under vacuum, each spot was washed with 200 μL of HBS pH 7.4, 1% BSA, 0.05% Triton; next the entire membrane was rinsed in the buffer and air-dried. The membrane was exposed with a Storage Phosphor Screen (Molecular Dynamics, Sunnyvale, Calif.) overnight, and the intensities of the resulting individual spots were quantified using a STORM 860 phosphoimager with the ImageQuaNT densitometry program (Molecular Dynamics). The Kd of the binding was determined by fitting the equilibrium equation to the resulting binding curve (KaleidaGraph, Synergy Software); the error of the experiment was estimated from 2-4 independent experiments.
B1 was tested, and the Kd was 7 nM. For B2, the Kd was 1.3 nM. Binder B3 has a Kd of 4 nM. Work on B4 yielded a Kd of 0.6 nM. In the case of B5, the Kd is reported as 0.02 nM. With B6 the Kd was 0.2 nM. For B7, the Kd was 0.4 nM. Work on B8 yielded a Kd of 0.4 nM. For B9, the Kd was 1.7 nM. B10 gave a Kd of 0.5 nM. For B11, the Kd was 0.7 nM. Work on B12 yielded a Kd of 0.11 nM. Work on B13 yielded a Kd of 0.3 nM. B14 gave a Kd of 0.6 nM.
